In test [1] the target is T1, mouse MAdCAM expressed on cells (mouse, UniProt Q61826 22-405).
T1 construct: whole, on cells
T1 sequence (looked up): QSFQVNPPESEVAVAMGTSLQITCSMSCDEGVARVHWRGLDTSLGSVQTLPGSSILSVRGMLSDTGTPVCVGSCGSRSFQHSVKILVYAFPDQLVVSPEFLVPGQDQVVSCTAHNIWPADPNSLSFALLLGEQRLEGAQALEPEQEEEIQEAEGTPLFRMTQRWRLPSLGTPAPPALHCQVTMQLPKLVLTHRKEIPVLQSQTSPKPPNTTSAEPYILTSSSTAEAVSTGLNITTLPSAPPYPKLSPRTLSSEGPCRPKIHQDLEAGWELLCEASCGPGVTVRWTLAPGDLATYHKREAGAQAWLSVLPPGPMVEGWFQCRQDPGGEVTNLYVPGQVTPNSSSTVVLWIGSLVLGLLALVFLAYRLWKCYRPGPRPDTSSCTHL
Kind of test: cell binding.

In test [2] the target is T2, human MAdCAM expressed on cells (human, UniProt Q13477 19-382).
T2 construct: whole, on cells; also called MADCAM1
T2 sequence (looked up): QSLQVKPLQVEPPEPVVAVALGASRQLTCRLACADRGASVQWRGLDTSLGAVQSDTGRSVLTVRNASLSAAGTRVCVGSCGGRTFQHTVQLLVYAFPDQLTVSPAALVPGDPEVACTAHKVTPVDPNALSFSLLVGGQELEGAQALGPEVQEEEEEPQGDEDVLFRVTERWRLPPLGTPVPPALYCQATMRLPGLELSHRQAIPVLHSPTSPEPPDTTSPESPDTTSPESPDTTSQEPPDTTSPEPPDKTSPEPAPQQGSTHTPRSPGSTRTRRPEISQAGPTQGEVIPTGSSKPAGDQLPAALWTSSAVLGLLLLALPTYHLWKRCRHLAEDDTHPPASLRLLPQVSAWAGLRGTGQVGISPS
The test is described as follows: cell binding.

In test [3] the target is T3, mouse MAdCAM protein (mouse, UniProt Q61826 22-365, limits assumed).
T3 construct: also called recombinant mouse MAdCAM-1; mMAdCAM-1
T3 sequence (looked up): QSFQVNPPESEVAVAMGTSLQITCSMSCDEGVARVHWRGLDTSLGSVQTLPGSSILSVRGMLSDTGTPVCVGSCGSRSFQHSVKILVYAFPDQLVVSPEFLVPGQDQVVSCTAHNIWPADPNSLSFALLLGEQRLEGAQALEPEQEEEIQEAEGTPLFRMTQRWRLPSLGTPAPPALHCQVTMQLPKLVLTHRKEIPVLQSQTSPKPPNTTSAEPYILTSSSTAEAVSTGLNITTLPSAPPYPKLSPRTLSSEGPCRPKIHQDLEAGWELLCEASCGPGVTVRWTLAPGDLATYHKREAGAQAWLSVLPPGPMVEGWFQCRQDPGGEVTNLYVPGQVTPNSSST
Kind of test: Octet. (Biolayer interferometry detects binding as a change in optical thickness at a sensor tip.)

Test [4] has as its target T4, human MAdCAM protein (human, UniProt Q13477 19-317).
T4 construct: used for Octet, SPR, ELISA and plate capture; construct not described; also called recombinant human MAdCAM; soluble monomeric human MAdCAM
T4 sequence (looked up): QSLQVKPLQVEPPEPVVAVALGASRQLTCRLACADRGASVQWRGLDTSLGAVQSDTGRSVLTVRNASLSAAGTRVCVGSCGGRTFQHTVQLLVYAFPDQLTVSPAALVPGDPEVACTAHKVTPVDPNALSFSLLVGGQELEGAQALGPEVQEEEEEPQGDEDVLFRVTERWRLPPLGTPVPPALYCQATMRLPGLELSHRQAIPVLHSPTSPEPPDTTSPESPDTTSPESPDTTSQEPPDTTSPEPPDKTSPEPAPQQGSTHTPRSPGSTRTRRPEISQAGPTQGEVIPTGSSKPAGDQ
Kind of test: Octet.

Test [5] addresses T3, mouse MAdCAM protein. The test is described as follows: Octet. This is another data set of the same source.
Test [6] deals with T4, human MAdCAM protein. The test is described as follows: Octet. The source holds these as a separate data set.
Test [7] concerns the target T1, mouse MAdCAM expressed on cells. The test is described as follows: cell binding. This is another data set of the same source.
The target in test [8] is T2, human MAdCAM expressed on cells. Kind of test: cell binding. The source holds these as a separate data set.

Where two headings read alike, the source gives them in different places.

B1: MAdCAM antibody Clone ID 59 of Table 6 (scFv) (scFv)
scFv: EVQLLESGGGLVQPGGSLRLSCAASGFTFSDFWMHWVRQAPGKGLEWISYISGDSGYTNYADSVKGRFTISRDNSKNTLYLQMNSLRAEDTAVYYCARDRPYYYYMDVWGKGTTVTVSSGGGGSGGGGSGGGGSGGGGSDIQMTQSPSSLSASVGDRVTITCRASQSVSRSLAWYQQKPGKAPKLLIYAASSLQSGVPSRFSGSGSGTDFTLTISSLQPEDFATYYCQQYKSYPVTFGQGTKVEIK
Consider B1, for which the binding result (in test [1]; in test [2]; with mouse MAdCAM protein [3]; with human MAdCAM protein [4]) was “binds” throughout.

B2: MAdCAM antibody Clone ID 75 of Table 7 (IgG) (antibody, V domains shown)
VH: EVQLLESGGGLVQPGGSLRLSCAASGFTFSDFWMHWVRQAPGKGLEWISYISGDSGYTNYADSVKGRFTISRDNSKNTLYLQMNSLRAEDTAVYYCARDRPYYYYMDVWGKGTTVTVSS
VL: DIQMTQSPSSLSASVGDRVTITCRASQSVSRSLAWYQQKPGKAPKLLIYAASSLQSGVPSRFSGSGSGTDFTLTISSLQPEDFATYYCQQYKSYPVTFGQGTKVEIK
notes: IgG format
Consider B2, for which the binding result (with mouse MAdCAM protein [5]; with human MAdCAM protein [6]; in test [7]; in test [8]) was “binds” each time.

B3: MAdCAM antibody Clone ID 6 of Table 7 (IgG) (antibody, V domains shown)
VH: EVQLLESGGGLVQPGGSLRLSCAASGFTFNNYAFHWVRQAPGKGLEWVSRINSYGTSTTYADSVKGRFTISRDNSKNTLYLQMNSLRAEDTAVYYCAREGPVAGYWYFDLWGQGTLVTVSS
VL: DIQMTQSPSSLSASVGDRVTITCRASQIIGTNLAWYQQKPGKAPKLLIYGASSLQSGVPSRFSGSGSGTDFTLTISSLQPEDFATYYCQQSYRLPFTFGQGTKVEIK
notes: IgG format
For the molecule B3, the binding result is “no binding” with mouse MAdCAM protein [5], “binds” with human MAdCAM protein [6], “no binding” in test [7] and “binds” in test [8].

B4: MAdCAM antibody Clone ID 78 of Table 7 (IgG) (antibody, V domains shown)
VH: QVQLVQSGAEVKKPGSSVKVSCKASGGTFSSYAISWVRQAPGQGLEWMGWMEPHTGNTRYAQKFQGRVTITADESTSTAYMELSSLRSEDTAVYYCAKGGFSWFDPWGQGTLVTVSS
VL: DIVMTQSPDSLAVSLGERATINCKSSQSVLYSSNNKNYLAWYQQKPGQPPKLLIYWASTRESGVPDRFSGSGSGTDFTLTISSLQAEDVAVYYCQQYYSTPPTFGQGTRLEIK
notes: IgG format
For B4, the binding result (in the test with human MAdCAM protein [6]; in test [7]; in test [8]) was “binds” in each case.

B5: MAdCAM antibody Clone ID 46 of Table 7 (IgG) (antibody, V domains shown)
VH: EVQLLESGGGLVQPGGSLRLSCAASGFSFSSYTMNWVRQAPGKGLEWVSFITSSSRTIYYADSVKGRFTISRDNSKNTLYLQMNSLRAEDTAVYYCARDRRGDYGDSWYFDLWGRGTLVTVSS
VL: EIVMTQSPATLSVSPGERATLSCRASQSVRNYLAWYQQKPGQAPRLLIYGASTRATGIPARFSGSGSGTEFTLTISSLQSEDFAVYYCQQYGSSPLTFGGGTKVEIK
notes: IgG format
For the molecule B5, the binding result with mouse MAdCAM protein [5] is “no binding”; with human MAdCAM protein [6], “binds”; in test [7], “no binding”; in test [8], “binds”.

B6: MAdCAM antibody Clone ID 17 of Table 7 (IgG) (antibody, V domains shown)
VH: QVQLVQSGAEVKKPGSSVKVSCKASGYTFTDYHIHWVRQAPGQGLEWMGGIVPRSGSTTYAQKFQGRVTITADESTSTAYMELSSLRSEDTAVYYCAKDESSGWYYFDYWGQGTLVTVSS
VL: DIVMTQSPLSLPVTPGEPASISCRSSQSLLHSNGYNYLDWYLQKPGQSPQLLIYSAYNRASGVPDRFSGSGSGTDFTLKISRVEAEDVGVYYCMQALQTPLTFGQGTKVEIK
notes: IgG format
As to B6, the binding result is recorded as “no binding” in the test with mouse MAdCAM protein [5], “binds” with human MAdCAM protein [6], “no binding” in test [7] and “binds” in test [8].

B7: MAdCAM antibody Clone ID 79 of Table 7 (IgG) (antibody, V domains shown)
VH: EVQLLESGGGLVKPGGSLRLSCAASGFTFDDYAMHWVRQAPGKGLEWVASITSSSAFIDYAASVKGRFTISRDDSKNTLYLQMNSLKTEDTAVYYCARERVDWNSYFDLWGRGTLVTVSS
VL: EIVMTQSPATLSVSPGERATLSCRASQGISNSYLAWYQQKPGQAPRLLIYGASTRATGIPARFSGSGSGTEFTLTISSLQSEDFAVYYCQQYYTYPPTFGPGTKVDIK
notes: IgG format
As to B7, the binding result (with mouse MAdCAM protein [5]; in the test with human MAdCAM protein [6]; in test [7]; in test [8]) was “binds” in each case.

B8: MAdCAM antibody Clone ID 22 of Table 7 (IgG) (antibody, V domains shown)
VH: EVQLLESGGGLVQPGGSLRLSCAASGFTFDDYAMHWVRQAPGKGLEWVSGISWNSGSIGYADSVKGRFTISRDNSKNTLYLQMNSLRAEDTAVYYCAKDIVAAGHYYYGMDVWGQGTTVTVSS
VL: DIQMTQSPSSLSASVGDRVTITCQASQDISNYLNWYQQKPGKAPKLLIYDASNLETGVPSRFSGSGSGTDFTLTISSLQPEDFATYYCQQSYSTPLTFGGGTKVEIK
notes: IgG format
On to B8, for which the binding result with mouse MAdCAM protein [5] is on record as “no binding”; with human MAdCAM protein [6], “binds”; in test [7] it was “no binding”; in test [8] it was “binds”.

B9: MAdCAM antibody Clone ID 23 of Table 7 (IgG) (antibody, V domains shown)
VH: EVQLLESGGGLVQPGGSLRLSCAASGFTFDDYAMHWVRQAPGKGLEWVSYIDTSSSHLYYADSVKGRFTISRDNSKNTLYLQMNSLRAEDTAVYYCARDEAAAGYYGMDVWGQGTTVTVSS
VL: DIQMTQSPSSLSASVGDRVTITCQAGQDISNYLNWYQQKPGKAPKLLIYDASNLETGVPSRFSGSGSGTDFTLTISSLQPEDFATYYCQQTYSTPITFGQGTKLEIK
notes: IgG format
For B9, the binding result with mouse MAdCAM protein [5] was “no binding”; with human MAdCAM protein [6] it was “binds”; in test [7] it was “no binding”; in test [8] it was “binds”.

B10: MAdCAM antibody Clone ID 2 of Table 6 (scFv) (scFv)
scFv: QVQLVQSGAEVKKPGASVKVSCKASGYPFIGYYLHWVRQAPGQGLEWMGIINPSGGSTSYAQKFQGRVTMTRDTSTSTVYMELSSLRSEDTAVYYCAREGRLSYGMDAWGQGTLVTVSSGGGGSGGGGSGGGGSGGGGSDIQMTQSPSSLSASVGDRVTITCRASQSISSYLAWYQQKPGKAPKLLIYGASTLESGVPSRFSGSGSGTDFTLTISSLQPEDFATYYCQQTWGPPFTFGQGTKLEIK
Turning to B10, the binding result (in test [1]; in test [2]; with mouse MAdCAM protein [3]; in the test with human MAdCAM protein [4]) was “binds” in each case.

B11: MAdCAM antibody Clone ID 58 of Table 7 (IgG) (antibody, V domains shown)
VH: EVQLLESGGGLVQPGGSLRLSCAASGFSVSSNYMSWVRQAPGKGLEWVAGISYDGSSKPYADSVKGRFTISRDNSKNTLYLQMNSLRAEDTAVYYCARSRGIAARPLQHWGQGTLVTVSS
VL: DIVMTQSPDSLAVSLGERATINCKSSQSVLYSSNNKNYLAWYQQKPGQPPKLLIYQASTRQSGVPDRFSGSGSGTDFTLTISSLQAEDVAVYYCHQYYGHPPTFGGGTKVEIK
notes: IgG format
Regarding B11, the figures for the binding result (with human MAdCAM protein [6]; in test [7]; in test [8]) were “binds”, “no binding” and “binds”, respectively.

B12: MAdCAM antibody Clone ID 20 of Table 7 (IgG) (antibody, V domains shown)
VH: EVQLLESGGGLVQPGGSLRLSCAASGFTFSDSAMHWVRQAPGKGLEWVSAISGSGSTIYYADSVKGRFTISRDNSKNTLYLQMNSLRAEDTAVYYCVSDIAVAGHWYFDLWGRGTLVTVSS
VL: DIQMTQSPSSLSASVGDRVTITCRASQSISTFLNWYQQKPGKAPKLLIYAASRLEGGVPSRFSGSGSGTDFTLTISSLQPEDFATYYCQQANSFPLTFGPGTKVDIK
notes: IgG format
For B12, the binding result in the test with mouse MAdCAM protein [5] is “no binding”; in the test with human MAdCAM protein [6] it was “binds”; in test [7], “no binding”; in test [8], “binds”.

Values taken from US20200392228A1 (PANDION OPERATIONS, published 2020).
